Results published in the nanobody polyreactivity screen of Harvey et al. (2022).

Assay: yeast display, Sf9 membrane polyspecificity reagent, FACS + sequencing; frameworks hold sequencing errors
How it was run: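 Sorting gates, low and high (top ~1%), were placed on anti-HA fluorescence to track expression and on streptavidin fluorescence to track reagent binding. A clone's polyreactivity label is taken from the gate it came out of. The reagent was 10% biotinylated, detergent-solubilized Sf9 membrane, applied for 1 hour at 4 °C to galactose-induced yeast display cells.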

Sequence | polyreactivity (PSR sort gate)
QVQHVESGGNLFKAGGSLRLSCAASGITFVYNAMGWYRPAPGKERELVDGITWSGSSTYYADSVKGRFTISRDNAKNTVYFHMNSLKPDDTAVYYCDAYLYDRTTRYTYYYWGQGTQVTVSS | high polyreactivity
QVQLVESGGGLVQAGGSLRLSCAASGRIFWRNTMGWYRQAPGKERELVAAINYSGGRTYYADSVKGRFTISRDNAKNTVYLQMNSLKPEDTAVYYCAATPPVATNGRYYYWGQGTQVTVSS | low polyreactivity
KVQLVESGRGLVQAGGSLLLICAASGSTFVDYAMGWYRQAPGKERELVAGINVSGGSTYYSDYVKGSFTISRDNSNNPVYLQMNSLNPEDTAVYYCAKVVSNRLALPAWDYNYWGQGTKVTVSS | low polyreactivity
QVQLGESGGGLVQSGGSLRLSCAASGRTFCYYAMGWYRQAPGKERELVAAITNRGGNKYYADSVKGRFTISRDNAKNTVYLQMNSLKPEDTAVYYCAAYNRIYGYHTLYYWGQGTQVTVSS | high polyreactivity
QVQLVESRGGLVQAGGSLRLSCAASGSTFPGYAMGWYRQPPGKERELVAAINWRGASTYYADSVKGRFTMSRDNAKNTVYLQMNSLKPEDTAVYYCAGKYNHVTDEYEYWGQGTQVTVSS | high polyreactivity
QVQLVESGGGLVKAGGSLRLSCAASGRIFNWYAMGWYRQAPGKEREFVAAITFSGGSTYYADSVKGRFTISRDNAKNTVYLQMNSLKPEDTAVYYCAAEIYFFVSYDYWGQGTQVTVSS | low polyreactivity
QVQLVESGGCLVQAGGSLRLSGAASGYTFFFNVMGWYRPAPGKERQMVAAISYSGGSTNYADSVKGRFTISRDNAKITVYLQINSLKPEDTAVYYCNARSVSRNGYQDDYWGQGTQVTVSS | low polyreactivity
QDQLVESGGGLVQAGGSLRLSCAASGYTFAYYAMGWYRQAPGKERELVARITSGGRTYYADSVKGRFTISRDNAKNTVYLQMNSLKPEDTAVYYCNAAWPFRYRRYDYWGQGTQVSVSS | high polyreactivity
QVQLVESGGGLVQAGGSLRLSCAASGNIFSKYVRGWYRQARGKERELVAAITYSGGSTYYADSVKGRFTISRDNSKNTVYLQMNSLKPEDTGVYYCNAVRRRSSLKLDSWGQGTQVTVSS | high polyreactivity
QVQLVESGGGLVQAGGSLRLSWAASGRIFYGYTMGWYRQAPGKERELVASITIRGSRTYYADSVKGRCTISRDNAKNTVYLQINSLKPEDTAVYYCAADFVPARTVHRYDYWGQGTQVTVSS | low polyreactivity
QVQLEESGGCLVQAGGSLRLSCAASGSIFWYNAMGRSRQAPGKERELVAAISYSGDRTYYADSVKGRFTISRDNAKNTGYLLMNSLKPEVTAVYYCAKAGTCFYNSWWEDSWGQGTQVTLSS | low polyreactivity
QVQLVESGGGLVQAGGSLRLICDASGRIFSFNAMGWSRQAPGKETELVAGITYGGNTYYADSVKGRFTISRDNANNTVYLQMNSLKPEDTAVYYCSAVRGVRHDYWGQGTQVTVSS | low polyreactivity
QVQLVESGGGLVQAGGSLRLSCAASGRIFVRNAMGWYRQAPRKERELVADITNGGSTNYADSVKGRFTISRDNGMNTVYLQMNSLKPEDTAVYYCAADTLGVYDGDYWGQGTQVTVSS | low polyreactivity
QVQLVESGGGLVQAGGSLRLSCAASGYTFVYYAMGLYREAPGKERELVAAITSGGRTNYADSVKGRFTISRDNAKNTVYLQMNSLKPEDTAVYYCNVDGYYLFVRGYEYWGQGTQVTVSS | low polyreactivity
QGQLVESGGGLVQAGGSLRLSCAASGSIFSSNAMGWYRQAPGKQRELVAAIDWDSGSTSYADSVKGRFTISRDNAKNTVYLQMISLKPEDTAVFYCAADEVLSGYYTLDYWGQGTQVTVSS | low polyreactivity
QVQLVESGGGLVQAAGSLRLSCAASGITFRWYAMGWYRQAPGKERELVAAITYRGGSTHYEDSVKGRFTISRDNAKTSVYLQMNSLKPEDTAVYYCAVRRWPRYRWSDYWGKGTQVTVSS | low polyreactivity
